In the supplement of paper PMC9170038:

Tested on: MS2 coat protein
Assay: apparent KD of MS2 coat protein; designed switch direction (-1 OFF switch, 1 ON switch): -1; higher = weaker reporter binding
In short: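 Designed RNA switches sharing common flanks were transcribed on Illumina chips by stalled E. coli RNA polymerase. They were titrated with SNAP-549-labelled MS2 coat protein, from 0.7 or 1.5 nM doubling to 3 µM, in Tris-HCl pH 7.5 buffer with KCl, MgCl2, BSA, DTT, tRNA and Tween-20. Titrations ran without input, with 200 uM small-molecule ligand, or with an oligonucleotide input. The apparent KD of each design is the median over its clusters, after curve-fitting of normalised cluster fluorescence.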

[1] = input ligand: microRNA oligo, concentration not stated
[2] = Eterna round: R95, input ligand: microRNA oligo, concentration not stated

Sequence	apparent KD of MS2 coat protein [1] [nM]	apparent KD of MS2 coat protein (input ligand: FMN 200 uM) [nM]	apparent KD of MS2 coat protein (input ligand: none) [nM]	also measured
UAUAUAUAGUAAGGAUAUGUAUUAAUUUUAUGAACAGAAGGUACUGACAUGAGGAUCACCCAUGUUUUAGUGUGGGCAUGUAGA [JMF's solution 91] (Eterna round: R96, puzzle: Exclusion NG 1)	65.5	–	–	–
UAUAUAUAGUAAGGAUAUGUAUUAUUUUUAUAAACAGAAGGUACUGACAUGAGGAUCACCCAUGUUUUAGUGUGGGCAUGUAGA [JMF's solution 73] (Eterna round: R96, puzzle: Exclusion NG 1)	36.9	–	–	–
UAUAUAUAGUAAGGAUAUGUAUUUAAUUUAUAAACAGAAGGUACUGACAUGAGGAUCACCCAUGUUUUAGUGUGGGCAUGUAGA [JMF's solution 13] (Eterna round: R96, puzzle: Exclusion NG 1)	80.8	–	–	–
UAUCGCAAGCGAAGAUCCCACAUGAGGAUCACCCAUGUGCUCGUCUUAUAAGGUACUGUGACGAAAGUCACGGUACC [Sensor 3, v1 - 91 v15] (Eterna round: R97, puzzle: Sensor, turn-off variant 1)	–	31.6	32.2	–
UAUGCCUUUGUGAGGAUAUACUUUGUUUGGUCGUAGUAGAAGGCACAUGAGGAUCACCCAUGUAGAUUUUUGGU [JR_BME4_Sub012] (puzzle: Brourd's mod of Exclusion 4)	–	–	–	apparent KD of MS2 coat protein [2]: 25.4 nM
UAUGGUUAAGUCAGGAUAUGCACGAAGAGAUCAAUGCAGAAGGGACAUGAGGAUCACCCAUGUAAAGUCGUGUU [Ex4 #74] (Eterna round: R97, puzzle: Brourd's mod of Exclusion 4)	–	55.1	27.7	–
UAUGGUUAAGUCAGGAUAUGCUCAUAGAAGUCUAUGCAGAAGGGACAUGAGGAUCACCCAUGUAUGGUCGUGUU [Ex4 #65] (Eterna round: R97, puzzle: Brourd's mod of Exclusion 4)	–	142	70.9	–
UAUGGUUAAGUCAGGAUAUGCUCAUAGAAGUCUGUGCAGAAGGGACAUGAGGAUCACCCAUGUAUGGUAGUGUU [Ex4 #61] (Eterna round: R97, puzzle: Brourd's mod of Exclusion 4)	–	293	460	–
UAUGUCUCAGGAGGAUAUCUCCCGGUUGCCGUUAGAGAAGGCUUGAAACAUGAGGAUCACCCAUGUAAAUGGCCCGUCCUCCAA [Atsodibian] (Eterna round: R96, puzzle: Exclusion NG 1)	9.77	15.4	14.7	–
UAUGUUUUAGGAUAUUGUACUGCUGACAUGAGGAUCACCCAUGUAUGCUAACUCGGCCGUCGAGAAGGAGAAUAUG [BotMod 30 - Jieux - Exclusion 5] (Eterna round: R97, puzzle: Exclusion 5)	–	43.6	63.8	–
UAUUAAACAAGCAGAUCCCACAUGAGGAUCACCCAUGUGCUCGUCUUAUAAGGUACUGUGACGAAAGUCACGGUACC [Sensor 3, v1 - 91 v11] (Eterna round: R97, puzzle: Sensor, turn-off variant 1)	–	56.7	62.1	–
UAUUAACAAGCAAGAUCCCACAUGAGGAUCACCCAUGUGCUCGUCUUGUAAGGUACUGUGACGAAAGUCACGGUACC [Sensor 3, v1 - 84] (puzzle: Sensor v3, turn-off variant 1)	–	–	–	apparent KD of MS2 coat protein (Eterna round: R95, input ligand: FMN 200 uM): 13.9 nM; apparent KD of MS2 coat protein [2]: 41 nM; apparent KD of MS2 coat protein (Eterna round: R95, input ligand: none): 13.4 nM
UAUUAACAAGCGAGAUCCCACAUGAGGAUCACCCAUGUGCUCGUCUUAUAAGGUACUGUGACGAUAGUCACGGUACC [Mat - Sensor, turn-off var - Eli Mod - D3] (Eterna round: R97, puzzle: Sensor, turn-off variant 1)	–	14.5	13.8	–
